Positions count from the first letter of the chain named.
Key:
Assay in all cases: EMSA
Conditions in all cases: 10 mM Tris-HCl pH 8, 50 mM KCl, 0.5 mM EDTA, 10% glycerol, 0.5 mM DTT, 10 nM DNA, 25°C 25 min; 8% PAGE in 0.5x TBE
[1] = molecular target: T1, SydR' C16S (SC) C16S (Sinorhizobium meliloti Rm2011) (UniProt Q92XY2)
T1 sequence: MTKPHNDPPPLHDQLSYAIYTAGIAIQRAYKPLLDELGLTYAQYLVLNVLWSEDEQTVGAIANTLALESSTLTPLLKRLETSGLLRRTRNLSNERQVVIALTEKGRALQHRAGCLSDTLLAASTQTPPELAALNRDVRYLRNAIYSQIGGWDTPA

[2] = molecular target: T2, SydR' C16S&C114S (SS) C16S;C114S (Sinorhizobium meliloti Rm2011) (UniProt Q92XY2)
T2 sequence: T1 sequence with C114S

[3] = molecular target: T3, SydR' C114S (CS) C114S (Sinorhizobium meliloti Rm2011) (UniProt Q92XY2)
T3 sequence: T1 sequence with S16C, C114S

TCTGGGCTCCTTTGCGCACCAATATAATCAAGATTACCGCGAAAACCAATATCGCGATAAGAGATATGTTGACGAGCAGTTCAATATCTGACAACTTAAATATATCGCGATAACAGTTATCGCTATCAACGAAAGGAAAAAGCC (double strand) [sydR-SMa2023 intergenic region, 144 bp]
binding [1]: binds more weakly
binding [2]: binds more weakly
binding [3]: binds
